# Source: article doi:10.1101/2023.06.09.544317
# Molecular target: tRNA pseudouridine synthase from archaea (Q8U2C1) (P. furiosus)
# Assay: mass photometry
substance,measurement,value
tRNA pseudouridine synthase from archaea (Q8U2C1) (enzyme),stoichiometry N,2
